Source: PMC4226571, “The E6AP Binding Pocket of the HPV16 E6 Oncoprotein Provides a Docking Site for a Small Inhibitory Peptide Unrelated to E6AP, Indicating Druggability of E6” (PLoS ONE, 2014)
Entries after “also recorded” stand apart in the source; their conditions may differ.

Key:
[1] = target: E6APpep fused to the GAL4 DNA binding domain; assay: mammalian two-hybrid; settings: HeLa cells; read off a plot
[2] = target: pep11** fused to the GAL4 DNA binding domain; assay: mammalian two-hybrid; settings: HeLa cells; read off a plot
[3] = target: E6APpep fused to the GAL4 DNA binding domain; assay: mammalian two-hybrid; settings: HeLa cells; read off a plot; remark: listed apart in the source
[4] = target: pep11** fused to the GAL4 DNA binding domain; assay: mammalian two-hybrid; settings: HeLa cells; read off a plot; remark: listed apart in the source
wt HPV16 E6 = assay: Mammalian two-hybrid assay, wt HPV16 E6; type: cell-based; settings: HeLa; peptide-GAL4-BD + wt HPV16 E6-VP16-AD; relative to pACT control = 1.0; three experiments in duplicate
Excerpt: Results were obtained from three individual experiments, each performed in duplicates. Standard deviations are indicated. Asterisks above horizontal lines indicate statistically significant differences from pACT-transfected cells, with p-values of ≤0.001 (***). […] The horizontal line indicates 1.5-fold inhibition. Individual amino acid exchanges are indicated below each column. Error bars indicate standard deviation values. (D) Statistical analysis of the differential binding behaviour of HPV16 E6 mutants 16E6R55A and 16E6Y70A. […] Asterisks above the horizontal lines indicate statistically significant reductions of luciferase activities, with p-values of ≤0.01 (**) or ≤0.001 (***). Error bars indicate standard deviation values.
HeLa (HPV18-positive) and MRI-H-186 (HPV16-positive) cervical carcinoma cells, and H1299 lung cancer cells were grown in DMEM (pH 7.2), supplemented with 10% fetal bovine serum (Gibco Life Technologies, Carlsbad, CA, USA), 2 mM L-glutamine, 100 U/ml penicillin and 100 µg/ml streptomycin (Sigma-Aldrich, Saint Lois, MO). Plasmids were transfected by calcium phosphate co-precipitation as described. […] E6 constructs used in Figure 7C contain an additional flag-tag between E6 and the VP16-AD. Mutant derivatives of HPV16, HPV18 and HPV31 E6, as specified in the text, were generated by site directed mutagenesis and verified by DNA sequencing. […]

HPV16 E6 = settings: ref [17]; cited from earlier work
Excerpt: In previous work, we therefore followed an alternative strategy to screen for E6 inhibitors. […] In order to identify possible structural determinants for this discrepancy, we compared the amino acid sequences of the contact region in HPV16 E6 with the corresponding domain of HPV18 E6.

[5] = target: T1, wildtype HPV16 E6 fused to the VP16 transcriptional activation domain, P03126; assay: mammalian two-hybrid; settings: chain shown with the change; HeLa cells; parent: est. 19; read off a plot
T1 chain: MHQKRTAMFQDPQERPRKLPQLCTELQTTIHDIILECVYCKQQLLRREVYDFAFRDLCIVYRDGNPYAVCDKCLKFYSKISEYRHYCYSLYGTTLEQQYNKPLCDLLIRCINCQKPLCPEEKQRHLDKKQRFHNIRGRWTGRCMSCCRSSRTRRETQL

[6] = target: T2, pep11** fused to the GAL4 DNA binding domain; assay: two-hybrid; settings: partners not purified
T2 construct: also called pep11**-GAL4-BD
T2 chain: KEKEEYNSNCSCIACIGLI

[7] = target: T3, E6APpep fused to the GAL4 DNA binding domain (human); assay: two-hybrid; mammalian two-hybrid (CheckMate) in HeLa cells; peptides fused to GAL4-BD (pBIND), E6 proteins fused to VP16-AD (pACT); luciferase reporter pG5luc, normalized for pCMV-Gal; settings: partners not purified
T3 construct: The functional row used hrGFP-E6APpep; also called E6APpep-GAL4-BD
T3 chain: IPESSELTLQELLGEERR

Molecule “wildtype HPV16 E6 fused to the VP16 transcriptional activation domain (from UniProt P03126) R55A” has a percent of parent [1] of 64%, a percent of parent [2] of 130% and a percent of parent [3] of 64%. For the same molecule, the percent of parent [4] was 130%.

For “wildtype HPV16 E6 fused to the VP16 transcriptional activation domain (from UniProt P03126) Y70A”, the percent of parent [1] was 99%, the percent of parent [2] was 57% and the percent of parent [3] was 99%. The percent of parent [4] was 57%.

“wildtype HPV16 E6 fused to the VP16 transcriptional activation domain (from UniProt P03126) S74R” showed a percent of parent [1] of 70% and a percent of parent [2] of 64%.

Work on “wildtype HPV16 E6 fused to the VP16 transcriptional activation domain (from UniProt P03126) D44R” yielded a percent of parent [1] of 67% and a percent of parent [2] of 45%.

“wildtype HPV16 E6 fused to the VP16 transcriptional activation domain (from UniProt P03126) L100A” gave a percent of parent [1] of 130% and a percent of parent [2] of 130%.

Molecule “wildtype HPV16 E6 fused to the VP16 transcriptional activation domain (from UniProt P03126) L38E” has a percent of parent [1] of 170% and a percent of parent [2] of 140%.

In the case of “wildtype HPV16 E6 fused to the VP16 transcriptional activation domain (from UniProt P03126) Q107A”, the percent of parent [1] is reported as 79% and the percent of parent [2] is reported as 100%.

Work on “wildtype HPV16 E6 fused to the VP16 transcriptional activation domain (from UniProt P03126) V62A” yielded a percent of parent [1] of 63% and a percent of parent [2] of 61%.

“wildtype HPV16 E6 fused to the VP16 transcriptional activation domain (from UniProt P03126) K121A” gave a percent of parent [1] of 120% and a percent of parent [2] of 170%.

“wildtype HPV16 E6 fused to the VP16 transcriptional activation domain (from UniProt P03126) Q35A” showed a percent of parent [1] of 110% and a percent of parent [2] of 100%.

Work on “wildtype HPV16 E6 fused to the VP16 transcriptional activation domain (from UniProt P03126) R40A” yielded a percent of parent [1] of 110% and a percent of parent [2] of 120%.

Work on “wildtype HPV16 E6 fused to the VP16 transcriptional activation domain (from UniProt P03126) L50E” yielded a percent of parent [1] of 42% and a percent of parent [2] of 5%.

In the case of “wildtype HPV16 E6 fused to the VP16 transcriptional activation domain (from UniProt P03126) C140E”, the percent of parent [1] is reported as 140% and the percent of parent [2] is reported as 150%.

Work on “wildtype HPV16 E6 fused to the VP16 transcriptional activation domain (from UniProt P03126) Q35R” yielded a percent of parent [1] of 120% and a percent of parent [2] of 100%.

Work on “wildtype HPV16 E6 fused to the VP16 transcriptional activation domain (from UniProt P03126) V53E” yielded a percent of parent [1] of 45% and a percent of parent [2] of 7%.

“wildtype HPV16 E6 fused to the VP16 transcriptional activation domain (from UniProt P03126) N105A” gave a percent of parent [1] of 80% and a percent of parent [2] of 110%.

“wildtype HPV16 E6 fused to the VP16 transcriptional activation domain (from UniProt P03126) C51F” showed a percent of parent [1] of 110% and a percent of parent [2] of 110%.

With “wildtype HPV16 E6 fused to the VP16 transcriptional activation domain (from UniProt P03126) Y32A” the percent of parent [1] was 53% and the percent of parent [2] was 7%.

In the case of KEKEEYNSNSSSIASIGLI [pep11**m], the “increase of luciferase activity (intracellular E6/peptide binding)” value (wt HPV16 E6) is listed as “did not stimulate luciferase activities; also recorded: does not bind to HPV16 E6” and the “binding to HPV16 E6 (in words)” value (HPV16 E6) is listed as “defective for E6 binding”.

“wildtype HPV16 E6 fused to the VP16 transcriptional activation domain (from UniProt P03126) R131E” gave a percent of parent [1] of 41% and a percent of parent [2] of 49%.

Work on “wildtype HPV16 E6 fused to the VP16 transcriptional activation domain (from UniProt P03126) K34E” yielded a percent of parent [1] of 74% and a percent of parent [2] of 120%.

For “wildtype HPV16 E6 fused to the VP16 transcriptional activation domain (from UniProt P03126) H24Q”, the percent of parent [1] was 87% and the percent of parent [2] was 74%.

In the case of KEKEEYNSNSSSIASIGLI [pep11** fused to the GAL4 DNA binding domain pep11**m], the response [5] is reported as 1 RLA.

B1: wildtype HPV16 E6 fused to the VP16 transcriptional activation domain (natural protein)
chain: MHQKRTAMFQDPQERPRKLPQLCTELQTTIHDIILECVYCKQQLLRREVYDFAFRDLCIVYRDGNPYAVCDKCLKFYSKISEYRHYCYSLYGTTLEQQYNKPLCDLLIRCINCQKPLCPEEKQRHLDKKQRFHNIRGRWTGRCMSCCRSSRTRRETQL
notes: source: HeLa, transfected (vector pACT), mammalian two-hybrid fusion
In the case of B1, the “fold increase of luciferase activity over control-transfected cells” value [6] is reported as ~19 fold and the “fold increase of luciferase activity over control-transfected cells” value [7] is reported as ~3 fold.
